Test results reported in the DeepSol protein solubility set.

Assay: soluble on expression in E. coli; label from the status in PepcDB or PDB records

Soluble on expression in E. coli, not soluble:
MGSDKIHHHHHHMTNWLPDPSALASPLHSSLALAIAKAISEGKLPKGTQLPTHRKLAEELGLSVHTVSKAYESLRRQRLIDGQVGRGSYVLDLNTPDDQPFQLSSERGRNFDLSISRPAFSQRHAELFQQVLADLPQGLDPSYYLACRPNVGHDAHRAAGETWLRICGLDVPSERIIMTNGVSHGMSAALSALARPGDTVVSSRITHHLLVSGCSYLGLNLVGIDFDQDGMLPDALDRHCSENNAKVLFLLPSLANTTVEMIPEERRQALVQVARKHNLYIIENDAFGPVAEDRPVPVAALAPERTIYLTTFTKCTVSGLRAGYMAAPEHLLPALTGRIVVFGWMATPLMCEIATRWVLDGTALELALWQRRALAERYEIASQALQGHQWRGHPSALHLWLPLESGWTTSSFVAYARQLKVAVAPDAPFLTPKTPPPNAVRISLGSVQDLSRFKQAMELVGGMLSRPPEGVAPLAF, MGSDKIHHHHHHMTPSEYQNPILCADYSDPDIVRVGDDFFMVSSSFNHVPALPILHSTDLVNWTIINHVMDELPLPGYDRYQPGKGVWAPSIRWHDGKLWVCFSTPDEGIFICHTEDPWGKWSAPHCLREARGWIDPCPFWDDNGQAWLVHAFAHSRSGIKHKLQLFAMAPDASELLGEGQIIYDGCCDLPTLEGPKVYQRAGWYYIFAPAGGVENGWQTVLRARQMTGPWEAKNVLFQGNTSINGPHQGGWVEGEEGECWFVHFQDLHLYGRVVHLQPMSWGNDGWPRIGEQIGNCGVGQPVLRWPRPKGLTPSPALAPQTSDYFAQGQPGIQWQWQANPSPEWLLPAEGELRLRCVPLSEVDGQRALYWAPQLLLQKFPALTFSAKTSVTLYAAQDGDAGGLIVYGERYAALLVEFGQGGYRLVWRHGWMSDAGVVRETRQVLAELKCGKCQLQVAVGEGGLCQFSWRAEEEWRKVPLCFAAGKGKWVGAKFGLLAASMVGLQSEGYSALQDFEVIL, MGSDKIHHHHHHMTQEMILANATLILAGETRTGCVKISDSVIADIADGSSVPAGAVDLEGDFLSPGLVELHTDNLERHIEPRPGVDWPHAAALVAHDAELASTGITTVFDAMRVGSIPSGKGRYIKYARQLASEMLDLRTKDMLKISHFLHLRAEVCSETLAEELAEFTAEDRVGLVSLMDHTPGQRQFRDIAKLEQYVKSKRGMSDEEFINHVAQLKDLRARFGDLHEATTVAEAARFGAVLASHDDTTADQVQTSAGHGIRLAEFPTTVEAARACHAHGIKVMMGAPNLIRGGSHSGNVAARELADLELLDIVSSDYIPAALLQAAVKLGEIWGDLARGMATVTAAPAASVGLTDRGVLEVGKRADLIRFRTREGVPMLRAVYSRGARVA, MGSDKIHHHHHHMTQEQTRPKHMAAGETPEQHAAFEARIARGEKIEPGDWMPAEYRRQLIRMISQHAHSEVVGMLPEGEWIARAPSLKRKTILMAKVQDEAGHGQYLYHAAETLGVTREEMLDALLTRKAKYSSIFNYPTLTWADVGMIGWLVDGAAIKNQTMLAGCSYGPYSRAMVRICSEETFHHKQGKEMMVLYAQGTPEQRQMAQDALNRWWWPAVQMLGPHDSDSPNTGALSKWGIKLKTNDEVRQEFINEHVPELLEAGLTIPDPDLHQDEAGNWVHGPIDWSEFWAVIKGEQGLGNERLATRQAAQDEGAWVREALEAYMARQAKGEAAD, MGSDKIHHHHHHMTQHVIEMREITKKFGDFVANDHINLNVRKGEIHALLGENGAGKSTLMNMLAGLLEPTSGEIVINDKPVQIDSPSKSAKLGIGMVHQHFMLVEAFTVAENIILGNEVVKNGCLDLNQASKDIKVLSEKYGLAINPSAKVSDISVGAQQRVEILKTLYRGADILIFDEPTAVLTPAEIKELMTIMKNLVKEGKSIILITHKLDEIRAVADRVTVIRRGKSIETVDVAGATSQDLAEMMVGRSVSFTTSKKAAEPKDVVLSIKNLEVDENRGVPAVKGLSLDVRAGEIVGIAGIDGNGQSELIQAITGLRKVKSGSIMIKNNEVTHLSSRKITELSVGHVPEDRHRDGLILDLSLAENTALQTYYKQPLSQNGILNYTKINDYARQLMKEFDVRGANELVPARGFSGGNQQKAIIAREVDRDPDLLIVSQPTRGLDVGAIEYIHKRLIKERDKGKAVLVVSFELDEILNLSDRIAVIHDGKIQGIVSPENTNKQELGILMAGGSIHKEEGHV
